Where no end group is shown, it is not given here. [ ]: non-standard residue; d: D form. The star is where a group is joined. Myristoyl = CCCCCCCCCCCCCC(=O)*; Ac6c = NC1(C(=O)O)CCCCC1; Nle = CCCC[C@H](N)C(=O)O; Orn = NCCC[C@H](N)C(=O)O; Ac5c = NC1(C(=O)O)CCCC1; Aib = CC(C)(N)C(=O)O

41 molecules from patent US20110136733A1 (IPSEN PHARMA S A S, published 2011) can be followed below.

The target of assay [1] is T1, human recombinant GIP receptor (human, UniProt P48546 22-466).
T1 construct: whole, on cells; Membranes of CHO-K1 cells expressing the receptor; also called hGIP receptor
T1 sequence (looked up): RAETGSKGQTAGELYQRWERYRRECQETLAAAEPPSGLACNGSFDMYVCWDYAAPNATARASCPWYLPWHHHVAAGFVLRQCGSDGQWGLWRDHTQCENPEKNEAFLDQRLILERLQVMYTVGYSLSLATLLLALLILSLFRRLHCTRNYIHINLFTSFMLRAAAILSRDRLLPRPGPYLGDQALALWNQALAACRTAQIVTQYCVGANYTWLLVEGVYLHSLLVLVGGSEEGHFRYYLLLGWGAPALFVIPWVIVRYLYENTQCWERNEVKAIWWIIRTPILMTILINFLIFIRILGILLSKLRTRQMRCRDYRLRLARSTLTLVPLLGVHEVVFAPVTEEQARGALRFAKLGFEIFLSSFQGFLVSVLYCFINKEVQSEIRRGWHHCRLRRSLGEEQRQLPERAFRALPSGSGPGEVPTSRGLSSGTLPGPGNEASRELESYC
Briefly: [125I]GIP competition, membranes of CHO-K1 cells expressing human GIP receptor.

For assay [2], the target named is T1, human recombinant GIP receptor. The assay is described as follows: [125I]GIP competition, membranes of CHO-K1 cells expressing human GIP receptor, same conditions as Table 2.

By Ki is commonly meant a measure of affinity in units of concentration, obtained from inhibition or displacement. Turning to YXEGTFISDYXIAXDKIHQQDFVNWLLAQKGKKNDWKHNITQ (Aib at 2 and 11; Nle at 14; C-terminal free acid) [(Aib^2, 11, Nle^14)hGIP(1-42)-OH], the Ki in assay [1] was 0.29 nM. On the same count and under the same terms, the figure for YAPGTFISDYSIAXDKIHQQDFVNWLLAQKGKKNDWKHNITQ (A6c at 14; C-terminal free acid) [(Pro^3, A6c^14)hGIP(1-42)-OH] is 214 nM. As to YAXGTFISDYSIXXDKIHQQDFVNWLLAQKGKKNDWKHNITQ (hPro at 3; Aib at 13; Nle at 14; C-terminal free acid) [(hPro^3, Aib^13, Nle^14)hGIP(1-42)-OH], in assay [1], the Ki was 330 nM.

As for XXEGTFISDYXIAXDKIHQQDFVNWLLAQKGKKNDWKHNITQ (NMe-Tyr at 1; Aib at 2; A5c at 11; Nle at 14; C-terminal free acid) [(NMe-Tyr^1, Aib^2, A5c^11, Nle^14)hGIP(1-42)-OH], the Ki in assay [1] stood at 0.19 nM. Still for that read-out and setting: with YXEGTFISDYXIAXDKIHQQDFVNWLLAQKGKKNDWKHNITQ (Aib at 2; A5c at 11; A6c at 14; C-terminal free acid) [(Aib^2, A5c^11, A6c^14)hGIP(1-42)-OH] the figure was 0.18 nM; with YXEGTFXSDYSIAXDKIHQQDFVNWLLAQKGKKNDWKHNITQ (A5c at 2 and 7; A6c at 14; C-terminal free acid) [(A5c^2, 7, A6c^14)hGIP(1-42)-OH], 34.4 nM; with YAEGTFISDYXIAMDKIHQQDFVNWLLAQKGKKNDWKHNIXQ (D-Ala at 2; A5c at 11 and 41; C-terminal free acid, X stands for the non-natural residue) [(D-Ala^2, A5c^11, 41)hGIP(1-42)-OH], 0.36 nM. The same measure, in the same setting: the figure for YAXGTFISDYXIAMDKIHQQDFVNWLLAQKGKKNDWKHNITQ (Tic at 3; A5c at 11; C-terminal free acid) [(Tic^3, A5c^11)hGIP(1-42)-OH] is 503 nM; for YXEGTFXSDYSIAXDKIHQQDFVNWLLAQKGKKNDWKHNITQ (Aib at 2; A6c at 7 and 14; C-terminal free acid) [(Aib^2, A6c^7, 14)hGIP(1-42)-OH] it is 0.83 nM. YXEGTFISDYXIAMDKIHQQDFVNWLLAQKGKKNDWKHNITQ (Aib at 2; A5c at 11; C-terminal free acid) [(Aib^2, A5c^11)hGIP(1-42)-OH]: the Ki in assay [1] came to 0.08 nM. Still for that read-out and setting: with XAEGTFISDYSIXMDKIHQQDFVNWLLAQKGKKNDWKHNITQ (4Hppa (3-(4-hydroxyphenyl)propionic acid) at 1; Aib at 13; C-terminal free acid) [(4Hppa^1, Aib^13)hGIP(1-42)-OH] the figure was 2.25 nM; with YAPGTFISDYSIXXDKIHQQDFVNWLLAQKGKKNDWKHNITQ (Aib at 13; Nle at 14; C-terminal free acid) [(Pro^3, Aib^13, Nle^14)hGIP(1-42)-OH], 667 nM; with YAXGTFISDYXIAXDKIHQQDFVNWLLAQKGKKNDWKHNITQ (Tic at 3; A5c at 11; A6c at 14; C-terminal free acid) [(Tic^3, A5c^11, A6c^14)hGIP(1-42)-OH], 754 nM. In the case of YAXGTFISDYSIXXDKIHQQDFVNWLLAQKGKKNDWKHNITQ (Dhp at 3; Aib at 13; Nle at 14; C-terminal free acid) [(Dhp^3, Aib^13, Nle^14)hGIP(1-42)-OH], the Ki in assay [1] amounted to 727 nM. Still for that read-out and setting: with YXEGTFISDYSIXXDKIHQQDFVNWLLAQKGKKNDWKHNITQ (Aib at 2 and 13; Nle at 14; C-terminal free acid) [(Aib^2, 13, Nle^14)hGIP(1-42)-OH] the figure was 0.05 nM. Still for that read-out and setting: the figure for YAEGTFISDYXIAXDKIHQQDFVNWLLAQKGKKNDWKHNIXQ (D-Ala at 2; A6c at 11, 14 and 41; C-terminal free acid, X stands for the non-natural residue) [(D-Ala^2, A6c^11, 14, 41)hGIP(1-42)-OH] is 6.67 nM; for YXEGTFXSDYSIAXDKIHQQDFVNWLLAQKGKKNDWKHNITQ (Aib at 2; A5c at 7 and 14; C-terminal free acid) [(Aib^2, A5c^7, 14)hGIP(1-42)-OH] it is 0.22 nM. Regarding YAPGTFISDYXIAXDKIHQQDFVNWLLAQKGKKNDWKHNITQ (A5c at 11; A6c at 14; C-terminal free acid) [(Pro^3, A5c^11, A6c^14)hGIP(1-42)-OH], the Ki in assay [1] came out at 648 nM. The same measure, in the same setting: the figure for YXEGTFISDYSXAMDKIHQQDFVNWLLAQKGKKNDWKHNITQ (Aib at 2 and 12; C-terminal free acid) [(Aib^2, 12)hGIP(1-42)-OH] is 4.98 nM; for YXEGTFISDYSXAMDKIHQQDFVNWLLAQKGKKNDWKHNITQ (Aib at 2; A5c at 12; C-terminal free acid) [(Aib^2, A5c^12)hGIP(1-42)-OH] it is 1.65 nM.

On to YXEGTFISDYXIAXDKIHQQDFVNWLLAQKGKKNDWKHNITQ (Aib at 2; A5c at 11; Nle at 14; C-terminal free acid) [(Aib^2, A5c^11, Nle^14)hGIP(1-42)-OH], for which the Ki in assay [1] turned out to be 0.43 nM. With YAXGTFISDYSIAXDKIHQQDFVNWLLAQKGKKNDWKHNITQ (4Hyp at 3; A6c at 14; C-terminal free acid) [(4Hyp^3, A6c^14)hGIP(1-42)-OH], the Ki in assay [1] is 910 nM.

With YAEGTFISDYXIAMDKIHQQDFVNWLLAQKGKKNDWKHNXTQ (D-Ala at 2; A5c at 11 and 40; C-terminal free acid, X stands for the non-natural residue) [(D-Ala^2, A5c^11,40)hGIP(1-42)-OH], the Ki in assay [1] is 0.59 nM. Take YXEGTFISDYSIXMDKIHQQDFVNWLLAQK (Aib at 2 and 13; C-terminal amide) [(Aib^2, 13)hGIP(1-30)-NH2]: the Ki in assay [1] stood at 0.33 nM.

As to YAEGTFISDYXIAMDKIHQQDFVNWLLAQKGKKNDWKHNITQH (D-Ala at 2; A5c at 11; C-terminal free acid, X stands for the non-natural residue) [(D-Ala^2, A5c^11, His^43)hGIP(1-43)-OH], in assay [1], the Ki worked out at 0.56 nM.

In the case of YGEGTFISDYXIAMDKIHQQDFVNWLLAQKGKKNDWKHNITQH (A5c at 11; C-terminal free acid) [(Gly^2, A5c^11, His^43)hGIP(1-43)-OH], in assay [1], the Ki was found to be 0.97 nM. Still for that read-out and setting: the figure for Y[Aib]EGTF[Ac6c]SDYSIAMDKIHQQDFVNWLLAQKGKKNDWKHNITQQ-OH [(Aib^2, A6c^7, Gln^43)hGIP(1-43)-OH] is 0.94 nM; for [Orn](Myristoyl)AEGTF[Ac6c]SDYSIAMDKIHQQDFVNWLLAQKGKKNDWKHNITQ-OH [[Orn^1(N-C(O)-(CH2)12-CH3), A6c^7]hGIP(1-42)-OH] it is 21.5 nM; for Y[Aib]EGTF[Ac6c]SDYSIA[Nle]DKIHQQDFVNWLLAQKGKKNDWKHNITQ-OH [(Aib^2, A6c^7, Nle^14)hGIP(1-42)-OH] it is 0.45 nM.

With YAPGTFISDYSIAMDKIHQQDFVNWLLAQKGKKNDWKHNITQ-OH [[Pro^3]hGIP(1-42)-OH], the Ki in assay [2] was 171 nM. Y[Aib]EG[Ac5c]FISDYSIAMDKIHQQDFVNWLLAQKGKKNDWKHNITQ-OH [(Aib^2, A5c^5)hGIP(1-42)-OH]: the Ki in assay [1] came to 2.26 nM. Take Y[Aib]EGTF[Ac5c]SDYSIA[Nle]DKIHQQDFVNWLLAQKGKKNDWKHNITQ-OH [(Aib^2, A5c^7, Nle^14)hGIP(1-42)-OH]: the Ki in assay [1] turned out to be 0.69 nM. The same measure, in the same setting: the figure for YXEGTFISDYSIXXDKIHQQDFVNWLLAQK (Aib at 2 and 13; Nle at 14; C-terminal amide) [(Aib^2, 13, Nle^14)hGIP(1-30)-NH2] is 0.09 nM; for Y[Aib]PGTFISDYSI[Aib][Nle]DKIHQQDFVNWLLAQK-NH2 [(Aib^2, 13, Pro^3, Nle^14)hGIP(1-30)-NH2] it is 0.07 nM. Same read-out and setting: the figure for YXEGTFISDYXIAXDKIHQQDFVNWLLAQK (Aib at 2; A5c at 11; Nle at 14; C-terminal amide) [(Aib^2, A5c^11, Nle^14)hGIP(1-30)-NH2] is 0.16 nM; for Y[Aib]EG[Aib]FISDYSIAMDKIHQQDFVNWLLAQKGKKNDWKHNITQ-OH [(Aib^2, 5)hGIP(1-42)-OH] it is 4.08 nM; for Y[Aib]EGTF[Ac5c]SDYSIAMDKIHQQDFVNWLLAQKGKKNDWKHNITQ-OH [(Aib^2, A5c^7)hGIP(1-42)-OH] it is 0.41 nM. On to YXEGTFXSDYSIAMDKIHQQDFVNWLLAQK (Aib at 2; A6c at 7; C-terminal amide) [(Aib^2, A6c^7)hGIP(1-30)-NH2], for which, in assay [1], the Ki was 0.03 nM. For the molecule YAPGTFISDYXIAMDKIHQQDFVNWLLAQK (A5c at 11; C-terminal amide) [(Pro^3, A5c^11)hGIP(1-30)-NH2], in assay [1], the Ki turned out to be 65.8 nM. Still for that read-out and setting: with YXEGTFISDYXIAXDKIHQQDFVNWLLAQK (Aib at 2; A5c at 11; A6c at 14; C-terminal amide) [(Aib^2, A5c^11, A6c^14)hGIP(1-30)-NH2] the figure was 0.15 nM. For the molecule YXEGTFISDYXIAMDKIHQQDFVNWLLAQK (Aib at 2; A5c at 11; C-terminal amide) [(Aib^2, A5c^11)hGIP(1-30)-NH2], the Ki in assay [1] was found to be 0.09 nM.
